Source: IntAct's records for PubMed 30073165

B1: Cannabinoid receptor 1 (Homo sapiens), P21554 (parent)
chain: MKSILDGLADTTFRTITTDLLYVGSNDIQYEDIKGDMASKLGYFPQKFPLTSFRGSPFQEKMTAGDNPQLVPADQVNITEFYNKSLSSFKENEENIQCGENFMDIECFMVLNPSQQLAIAVLSLTLGTFTVLENLLVLCVILHSRSLRCRPSYHFIGSLAVADLLGSVIFVYSFIDFHVFHRKDSRNVFLFKLGGVTASFTASVGSLFLTAIDRYISIHRPLAYKRIVTRPKAVVAFCLMWTIAIVIAVLPLLGWNCEKLQSVCSDIFPHIDETYLMFWIGVTSVLLLFIVYAYMYILWKAHSHAVRMIQRGTQKSIIIHTSEDGKVQVTRPDQARMDIRLAKTLVLILVVLIICWGPLLAIMVYDVFGKMNKLIKTVFAFCSMLCLLNSTVNPIIYALRSKDLRHAFRSMFPSCEGTAQPLDNSMGDSDCLHKHANNAASVHRAAESCIKSTVKIAKVTMSVSTDTSAEAL
partner: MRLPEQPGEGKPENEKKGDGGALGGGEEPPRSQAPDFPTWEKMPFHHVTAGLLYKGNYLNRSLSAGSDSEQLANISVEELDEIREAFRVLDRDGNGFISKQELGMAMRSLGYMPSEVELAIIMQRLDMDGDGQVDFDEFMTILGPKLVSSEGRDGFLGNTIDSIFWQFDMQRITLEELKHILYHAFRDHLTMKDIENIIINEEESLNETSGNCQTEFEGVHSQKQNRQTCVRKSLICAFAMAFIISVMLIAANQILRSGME

Variants of: B1
Conditions: with cabp8_human CALN1, Q9BXU9

| Variant | effect of a mutation on the interaction |
| --- | --- |
| T321A;S322A | disrupting interaction strength |
